The test system of this assay is cyno GHR. The experiment in a line: STAT5 phosphorylation in vitro assay, cyno GHR-transfected HEK293 cells. The class given is cell-based, cynomolgus monkey. The conditions noted are these: for fluorescent signal ave (phospho-STAT5): Table 8, cyno GHR-transfected cells. The protocol:
This Example illustrates the effect of GHR antibodies in an in vitro STAT5 phosphorylation assay. In this Example, the ability of GHR antibodies to block GHR downstream signaling was tested in vitro using human GHR overexpressing cells and cyno GHR overexpressing cells.
GHR antagonist antibody Ab13 was tested for its ability to block STAT5 in an in vitro assay. HEK293 cells were transiently transfected with either DNA encoding full-length human GHR (SEQ ID NO: 140) or DNA encoding full-length cyno GHR (SEQ ID NO: 141). Cells were cultured in freestyle media for approximately 60 hours before testing. Cells were washed with DPBS (Dulbecco's Phosphate-Buffered Saline) and resuspended in Freestyle media, then counted using a hemocytometer. 1×10^6 cells were seeded per well in 6-well plates in 2 mls of Freestyle media. Cells were incubated for 2 hours at 37° C., then treated with 5, 50, or 500 nM Ab13 antibody in media. Cells were incubated at 37° C. with gentle mixing for 5 min with antibodies. 4.5 nM GH (Genotropin) was then added to all but control wells. Cells were incubated with GH at 37° C. with gentle mixing for 10 minutes.
Following incubation with GH, 2 ml of ice cold DPBS with 1× protease inhibitor cocktail (Roche) and 1 mM sodium orthovanadate (BioLabs) were added to each well and the plates were placed on ice. Cells were transferred to 5 ml tubes and spun down to create a cell pellet and the wash buffer was aspirated, leaving the cell pellet.
Reagents from Millipore™ MILLIPLEX® MAP Cell Signaling Buffer and Detection Kit (cat. #48-602) were used to lyse and treat the cell pellets. Millipore lysis buffer with 1× protease inhibitor cocktail and 1 mM sodium orthovanadate was added to each pellet at a volume of 200 ul/pellet. Cells were vortexed and incubated for 15 minutes at room temp with occasional vortexing. Millipore Assay buffer 2 with 1× protease inhibitor cocktail and 1 mM sodium orthovanadate was then added to the lysates at 300 ul/well.
Millipore™ MILLIPLEX® MAP Phospho STAT5N8 (Tyr694/699) MAPmate™ beads (Cat. #46-641) were resuspended in Assay Buffer 2 (from Millipore™ kit cat. #48-602) and loaded on a 96-well filter plate (provided in kit) at 25 ul/well, 25 ul/well of sample lysate was added to the wells and the beads and samples were incubated overnight at 4′C with shaking in the dark.
The liquid was then aspirated using a vacuum manifold and the remaining beads were washed using Millipore™ kit wash buffer. 25 ul Millipore™ kit detection antibody was added and incubated for 1 hour at room temperature with shaking in the dark. The detection antibody was vacuumed through and 25 ul kit streptavidin—Phycoerythrin was added and incubated in the dark for 15 min with shaking. 25 ul kit amplification buffer was then added and incubated for 15 min with shaking in the dark. The liquid was aspirated using a vacuum manifold, and the beads were resuspended in 150 ul kit assay buffer 2 and mixed on a shaker for 5 minutes before reading the plate.
The plate was read using a Luminex™ 200 instrument and fluorescent signal emitted from the samples was measured, The results of the STAT5 assay are shown in Tables 5 and 6. “Ave” indicates the average fluorescent signal, and “SEM” indicates the standard error of the mean.
Antibodies SS3 and SS1 (hIgG2Δa) were tested using a STAT5 phosphorylation assay. For the STAT5 assay, full-length human GHR overexpressing HEK293 cells or full-length cyno GHR-overexpressing HEK293 cells were cultured, counted by automated cell counter, and seeded in warm freestyle media in 12-well plates (5×10^5 cells/well in 1 ml media). Cells were allowed to settle for 3 hours at 37° C. then treated with 2.5, 5, 50, or 500 nM of SS1 or SS3 in media. […] Cells were incubated with GH at 37° C. with gentle mixing for 10 minutes.
Reagents from Millipore™ MILLIPLEX® MAP Cell Signaling Buffer and Detection Kit (cat, #48-602) were used to lyse and treat the cell pellets. […]

Sequence of cyno GHR (as listed by the source): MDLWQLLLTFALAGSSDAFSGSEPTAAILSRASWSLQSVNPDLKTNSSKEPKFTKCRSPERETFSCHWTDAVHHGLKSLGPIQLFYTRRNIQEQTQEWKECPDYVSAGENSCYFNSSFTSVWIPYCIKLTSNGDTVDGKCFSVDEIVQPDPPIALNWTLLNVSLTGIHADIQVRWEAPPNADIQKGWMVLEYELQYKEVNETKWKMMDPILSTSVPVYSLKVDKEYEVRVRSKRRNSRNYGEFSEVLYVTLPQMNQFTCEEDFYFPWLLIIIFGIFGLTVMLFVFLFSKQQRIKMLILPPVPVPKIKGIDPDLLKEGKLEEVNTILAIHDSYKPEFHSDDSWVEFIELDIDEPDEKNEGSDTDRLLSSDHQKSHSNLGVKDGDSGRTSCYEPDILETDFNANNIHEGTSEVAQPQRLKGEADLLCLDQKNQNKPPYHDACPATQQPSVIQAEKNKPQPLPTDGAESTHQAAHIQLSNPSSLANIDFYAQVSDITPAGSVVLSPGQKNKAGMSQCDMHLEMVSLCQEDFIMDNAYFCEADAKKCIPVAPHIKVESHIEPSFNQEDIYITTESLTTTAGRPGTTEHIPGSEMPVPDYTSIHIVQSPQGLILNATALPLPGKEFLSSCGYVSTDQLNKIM

B1: SS1: humanized GHR antagonist antibody; VL SEQ ID NO: 7, VH SEQ ID NO: 8; hIgG2Δa heavy chain SEQ ID NO: 134, light chain SEQ ID NO: 135 (antibody)
heavy: EVQLVESGGGLVKPGGSLRLSCAASGFTFSDAWMDWVRQAPGKGLEWVAEIRSKANYHATYYAESVKGRFTISRDDSKNTLYLQMNSLKTEDTAVYYCTLIRDYWGQGTLVTVSSASTKGPSVFPLAPCSRSTSESTAALGCLVKDYFPEPVTVSWNSGALTSGVHTFPAVLQSSGLYSLSSVVTVPSSNFGTQTYTCNVDHKPSNTKVDKTVERKCCVECPPCPAPPVAGPSVFLFPPKPKDTLMISRTPEVTCVVVDVSHEDPEVQFNWYVDGVEVHNAKTKPREEQFNSTFRVVSVLTVVHQDWLNGKEYKCKVSNKGLPSSIEKTISKTKGQPREPQVYTLPPSREEMTKNQVSLTCLVKGFYPSDIAVEWESNGQPENNYKTTPPMLDSDGSFFLYSKLTVDKSRWQQGNVFSCSVMHEALHNHYTQKSLSLSPGK
light: EIVLTQSPGTLSLSPGERATLSCTATSSVSSSYLNWYQQKPGQAPRLLIYSTSNLASGIPDRFSGSGSGTDFTLTISRLEPEDFAVYYCHQYHRSTPTFGGGTKVEIKRTVAAPSVFIFPPSDEQLKSGTASVVCLLNNFYPREAKVQWKVDNALQSGNSQESVTEQDSKDSTYSLSSTLTLSKADYEKHKVYACEVTHQGLSSPVTKSFNRGEC
modifications: Humanized and/or affinity matured antibody sequence
On to B1, for which the “fluorescent signal ave (phospho-STAT5)” value (2.5 nM antibody + 4.5 nM GH) is given as 496, the “fluorescent signal ave (phospho-STAT5)” value (5 nM antibody + 4.5 nM GH) was determined as 223, the “fluorescent signal ave (phospho-STAT5)” value (50 nM antibody + 4.5 nM GH) was 17 and the “fluorescent signal ave (phospho-STAT5)” value (500 nM antibody + 4.5 nM GH) is 12. The “effect on GH-stimulated STAT5 signaling” value (cells expressing cyno GHR, 4.5 nM GH) is on record as “blocked STAT5 signaling in a dose-dependent manner”.

The values are drawn from patent US9249224B2 (RINAT NEUROSCIENCE CORP., priority 2011, dated 2016).
